“Also recorded” adds a separate entry of the source.
Experiments:
[1] = DTNB assay (percent reduction state, free sulfhydryl); format: physicochemical; conditions: Table 1
Method: C35STRX-antibiotic conjugates are dissolved in PBS to the original volume before lyophilization and assayed for stability over seven days in comparison to non-conjugated reduced C35STRX. C35STRX-antibiotic conjugate concentration is measured by BCA protein assay (Pierce). […] Degradation/aggregation of C35STRX-antibiotic conjugates is determined by the percentage of C35STRX-antibiotic conjugate monomers assayed by SEC using an Agilent 1100 HPLC system and a BioBasic SEC-300 250×4.6 column (ThermoScientific) with a 40 mM Na acetate, 450 mM Na chloride 2 mM EDTA (pH 5.5) buffer at a flow rate 0.350 mL/min and detection by absorbance at 280 nm (A280).
Codon-optimized synthetic oligonucleotides encoding Lys to Ala mutants of C35STRX cloned into vector pD861 (Atum, Newark, Calif.) are expressed solubly in BL21 ΔrhaB E. coli under rhamnose induction (0.1% w/v, 26 deg C.) in APF-LB medium with 0.05% w/v glucose substrate at an O.D.600 of 0.8 in 2.8 L Fernbach shake flasks at NRC (Montreal Canada). Following cell pellet lysis (EmulsiFlex-C3, Avestin, Ottawa Canada) protein is purified from clarified extracts using anion exchange chromatography (FPLC, Akta) and 5 kDa ultrafiltration/diafiltration (UF/DF). […] Physical characterization: C35S(KA)TRX concentration is measured by BCA Protein assay (Pierce).

[2] = biological target: T1, insulin disulfides (heterodimeric insulin) (Homo sapiens, UniProt P01308); test: single-turnover insulin protein disulfide reduction assay (RP-HPLC of insulin heterodimer peak); format: biochemical; design: % reduction: concentration or dose not given beside the values; conditions: for % reduction / insulin heterodimer peak (RP-HPLC): pH 8
T1 construct: fully disulfide-bonded heterodimeric insulin
Method: Left side of FIG. 1—polyacrylamide gel electrophoresis of native human thioredoxin-1 (TRX). Lane 1: Molecular weight standards; Lane 2: Oxidized TRX; Lane 3: Oxidized TRX following reaction with dithiothreitol (DTT); Lane 4: Oxidized TRX following reaction with reduced glutathione (GSH); Lane 5: Oxidized TRX following reaction with GSH followed by DTT. Right side of FIG. 1—TRX was oxidized by exposure to ambient air for one week then incubated with either DTT or GSH at pH 8 for 1 hour followed by purification over a size exclusion column to remove unreacted free DTT or GSH after which the TRX was collected and used in a single-turnover insulin protein-disulfide reduction assay. Oxidized TRX (bottom line), TRX reduced with DTT (top line) or TRX reduced with GSH (middle line) were incubated with fully disulfide-bonded heterodimeric insulin at pH 8. After 30 min, 60 min and 120 minutes aliquots were taken and diluted with 0.1% TFA and 17 uM (final) iodoacetic acid and analyzed over RP-HPLC. Absorbance was monitored at 214 nm and the peak area of the insulin heterodimer fraction was determined at each time point to quantify TRX protein disulfide-reducing activity.
C35STRX was oxidized and Lys residues were conjugated to an azido-PEG linker. The conjugated material was then reduced and tested for molecular weight using SDS-PAGE (FIG. 5D) and MALDI-TOF (FIG. 5E) and activity assessed using a single-turnover insulin protein disulfide reduction assay. From the gel and MALDI-TOF results there is no free C35STRX; however, the conjugated material retained about 33% of its activity in the insulin assay as compared to unreacted reduced C35STRX. See FIGS. 5A-5E and their descriptions above.
Insulin Activity Assay with C35STRX and Azido-C35STRX: C35STRX OD280 was 11.8, corresponding to a concentration of 1.69 mM. C35STRX a OD280 was 15, corresponding to a concentration of 2.14 mM. Azido-C35STRX OD280 was 4.0, corresponding to a concentration of 0.57 mM. pH 8 Insulin stock: […] of Tris pH8 and 572 µL H2O and 25 µL of insulin (10 mg/mL) and 10 µL of 0.5 M EDTA. C35STRX stock was 0.5 mM. Azido-C35STRX stock was 0.5 mM concentration.
The reaction was stopped by addition of 10 µL of 1 M iodoacetic acid and 400 µL of 0.1% TFA. Samples were analyzed by RP-HPLC for changes in the insulin heterodimer peak.

[3] = test system: extracellular airway mucus; test: immunohistochemical detection of thioredoxin after IT delivery to rat airways; format: in vivo; conditions: intratracheal (IT) delivery, IHC
Description: FIG. 4 Immunohistochemical detection of thioredoxin following IT delivery to rat airways via Penn-Century micro-sprayer. […] Animals were sacrificed 4 hr post-dose and excised lungs fixed, sectioned and analyzed by IHC for immunodetection of thioredoxin.
Conversion of the thioredoxin active site to a monothiol allows thioredoxin homologue protein to remain covalently attached to targeted disulfides once it has reacted. […] Reduced thioredoxin homologue protein can remain bound to extracellular airway mucus for at least 4 hours following intratracheal (IT) delivery to normal rats with normal mucus as visualized by immunohistochemical detection (brown staining; FIG. 4, Top) using anti-human thioredoxin antisera. […] While time points later than 4 hours were not included in this study, normalization of mucociliary transport in human airway mucus on epithelia for up to 24 hours is observed confirming similar residence time/mucin binding duration for mucoadhesive conjugates.
Conversion of the thioredoxin active site to a reduced Cys32 monothiol allows thioredoxin variants to remain covalently attached to targeted disulfides once reacted. […]

[4] = test system: human airway mucus on epithelia; test: normalization of mucociliary transport in human airway mucus on epithelia; format: cell-based
rat = conditions: in vivo
mice = conditions: mouse, in vivo
[5] = test system: human primary bronchial epithelia from CF and normal donors; format: cell-based
rats = test: acute aerosol toxicity (nebulizer); format: in vivo
target proteins = test: disulfide linkage to target proteins in vitro by HPLC and gel-shift; format: binding
porcine gastric mucin = test: mucin binding direct ELISA; conditions: reduced biotinylated conjugate, various mucin concentrations
Method: To establish the feasibility of covalently binding conjugated monocysteinic active site Cys32-Ser35 thioredoxin (C35STRX) to mucins, conjugation of C35STRX via its N-terminal NH2 to a model payload (biotin) using EZ-Link™ Sulfo-NHS-SS-Biotin (ThermoFisher) was carried out. Dithiothreitol (DTT, 0.1 M) was used to generate active C35STRX conjugates by reduction of the C35STRX active site Cys. Following DTT removal (NAPS column, GE Healthcare), the mucin binding ability of reduced biotinylated 0.02 C35STRX was evaluated by direct ELISA using 96 well plates 0 (Costar 3370) coated with 100 μl of various concentrations of porcine gastric mucin (Sigma) in 100 mM Tris-HCl buffer (pH 9). 100 μL of biotinylated C35STRX in 50 mM Tris (pH 8) and 1 mM EDTA was then added and incubated for 2 hours, with washes performed between each step. 50 μL of avidin-horseradish peroxidase (HRP) was added and incubated for 30 min followed by 50 μL of tetramethylbenzidine (TMB) substrate. Reactions were stopped after 5 min with 100 μl 1N sulfuric acid. Absorbance at […] (Molecular Devices SpectraMax i3) was plotted against mucin concentration.

[6] = literature values; cited from earlier work

T1 sequence (P01308 25-54 limits assumed): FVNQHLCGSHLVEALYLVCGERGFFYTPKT
T1 sequence (P01308 90-110 limits assumed): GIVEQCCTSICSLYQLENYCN

B1: Azido-C35STRX (conjugate, UniProt P10599 2-105, looked up, variant C35S)
Thioredoxin: VKQIESKTAFQEALDAAGDKLVVVDFSATWCGPSKMIKPFFHSLSEKYSNVIFLEVDVDDCQDVASECEVKCMPTFQFFKKGQKVGEFSGANKEKLEATINELV
modifications: azido group
% reduced [1]: 106.6%
% reduction ([2]; Table 3, 0 min): 0%
insulin heterodimer peak (RP-HPLC) ([2]; Table 3, 0 min): 8959.8
% reduction ([2]; Table 3, 90 min): 32.69%
insulin heterodimer peak (RP-HPLC) ([2]; Table 3, 90 min): 6030.6
% reduction ([2]; Table 4, 0 min): 0%
insulin heterodimer peak (RP-HPLC) ([2]; Table 4, 0 min): 10213
% reduction ([2]; Table 4, 90 min): 33.07%
insulin heterodimer peak (RP-HPLC) ([2]; Table 4, 90 min): 6835
activity retained in the insulin assay as compared to unreacted reduced C35STRX ([2]; up to 11 azido-PEG linkers on Lys): about 33%

B2: C35STRX: monocysteinic active site Cys32-Ser35 variant of human thioredoxin-1, mucus-targeting scaffold (protein)
chain: MVKQIESKTAFQEALDAAGDKLVVVDFSATWCGPSKMIKPFFHSLSEKYSNVIFLEVDVDDCQDVASECEVKCMPTFQFFKKGQKVGEFSGANKEKLEATINELV
% reduced [1]: 109.4%
% reduction ([2]; Table 3, 0 min): 0%
insulin heterodimer peak (RP-HPLC) ([2]; Table 3, 0 min): 8515.4
% reduction ([2]; Table 3, 90 min): 99.40%
insulin heterodimer peak (RP-HPLC) ([2]; Table 3, 90 min): 50.2
% reduction ([2]; Table 4, 0 min): 0%
insulin heterodimer peak (RP-HPLC) ([2]; Table 4, 0 min): 10602
% reduction ([2]; Table 4, 90 min): 97.70%
insulin heterodimer peak (RP-HPLC) ([2]; Table 4, 90 min): 243.2
time remaining bound to extracellular airway mucus ([3]; normal rats): at least 4 hours
duration of normalization of mucociliary transport [4]: up to 24 hours
adverse inflammatory effects in lavage fluid (rat): No adverse inflammatory effects
adverse inflammatory effects in lavage fluid (mice): No adverse inflammatory effects
adverse inflammatory effects in vitro [5]: No adverse inflammatory effects
toxic effects in normal animals treated by aerosol (rats; normal animals, aerosol, high dose levels): lack of observed toxic effects
local or systemic toxicity, histopathology (rats; rats dosed acutely, aerosol via nebulizer, highest delivered concentration 40 mg/kg): No local or systemic toxicity or histopathological anomalies
disulfide linkage to target proteins (target proteins): stable disulfide linkages to target proteins

B3: biotinylated C35STRX (conjugate)
chain: MVKQIESKTAFQEALDAAGDKLVVVDFSATWCGPSKMIKPFFHSLSEKYSNVIFLEVDVDDCQDVASECEVKCMPTFQFFKKGQKVGEFSGANKEKLEATINELV
mucin binding (porcine gastric mucin): bind mucin in a dose-dependent fashion; also recorded: maintained full mucin binding activity with linear kinetics

B4: TRX: endogenously secreted human epithelial protein thioredoxin-1, small (12 kDa) redox enzyme (protein)
chain: MVKQIESKTAFQEALDAAGDKLVVVDFSATWCGPCKMIKPFFHSLSEKYSNVIFLEVDVDDCQDVASECEVKCMPTFQFFKKGQKVGEFSGANKEKLEATINELV
pKa of catalytic Cys thiol [6]: 6.2

B5: Oxidized (inactive) C35STRX: oxidized, inactive form of C35STRX used as control (protein)
chain: MVKQIESKTAFQEALDAAGDKLVVVDFSATWCGPSKMIKPFFHSLSEKYSNVIFLEVDVDDCQDVASECEVKCMPTFQFFKKGQKVGEFSGANKEKLEATINELV
binding to mucus or the epithelial surface ([3]; rats, 4 hr post-dose): did not bind mucus or the epithelial surface

Reference: US20210213134A1, “THIOL-BASED MULTIVALENT DRUG DELIVERY COMPOSITIONS” (ORPRO THERAPEUTICS, INC., priority 2018, published 2021)
